Assay results from patent publication US20250101120A1 (BEIJING SOLOBIO GENETECHNOLOGY, published 2025).
Read-outs that look alike come from different tables or passages of the source.

T1: hFc-hFasL (fusion protein of human Fc fragment and human FasL extracellular region) (human, UniProt P48023 134-281)
T1 sequence: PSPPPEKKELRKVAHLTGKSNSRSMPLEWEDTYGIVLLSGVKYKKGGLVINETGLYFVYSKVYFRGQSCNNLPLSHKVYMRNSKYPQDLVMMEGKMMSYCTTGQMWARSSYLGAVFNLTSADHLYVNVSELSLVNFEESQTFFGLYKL


Experiments:
[1] = target: T1, hFc-hFasL (fusion protein of human Fc …); assay: cell-based or functional assay
[2] = target: T1, hFc-hFasL (fusion protein of human Fc …); assay: ELISA, hFc-hFasL coated, antibody titrated, anti-human kappa-HRP
[3] = target: T1, hFc-hFasL (fusion protein of human Fc …); assay: cell-based or functional assay; remark: listed apart in the source
[4] = target: T1, hFc-hFasL (fusion protein of human Fc …); assay: cell-based or functional assay; remark: listed apart in the source
[5] = target: T1, hFc-hFasL (fusion protein of human Fc …); assay: cell-based or functional assay; remark: listed apart in the source
[6] = target: T1, hFc-hFasL (fusion protein of human Fc …); assay: cell-based or functional assay; remark: listed apart in the source
[7] = target: T1, hFc-hFasL (fusion protein of human Fc …); assay: ELISA, hFc-hFasL coated, antibody titrated, anti-human kappa-HRP (protocol of Example 3.2)

Binder	EC50(nM), FasL antigen-induced NF-κB signaling pathway activation (SEAP, HepG2-Dual) [1] [nM]	EC50 [2] [nM]	IC50(nM), FasL antigen-induced apoptosis of HepG2 cells (CellTiter-Glo ATP) [3] [nM]	IC50(nM), FasL antigen-induced apoptosis of Jurkat cells (CellTiter-Glo ATP) [4] [nM]	HepG2 IC50(nM), FasL antigen-induced cell apoptosis [5] [nM]	Jurkat IC50(nM), FasL antigen-induced cell apoptosis [5] [nM]	HepG2 IC50(nM), FasL antigen-induced cell apoptosis [6] [nM]	Jurkat IC50(nM), FasL antigen-induced cell apoptosis [6] [nM]	EC50 [7] [nM]
FL-M05 (antibody, V domains shown, Chimeric full-length antibody, tested as human IgG4 / human kappa) VH: EVQLQQSGAELVRPGVSVKISCKGSGYTFTDYTMHWVKQSHAKSLEWIGVISTYQGDARYNQKFKGKATMTVDKSSSTAYMELARLTSEDSAIYYCARFPDWDYAMDYWGQGTSVTVSS VL: DIVLTQSPASLAVSLGQRATISCKASQSVDYDGDSYMNWYQQKPGQPPKLLIYAASNLESGIPARFSGSGSGTDFTLNIHPVEEEDAATYYCQHSRELPYTFGGGTKLEIK	1.13	0.186	0.03	0.109	–	–	–	–	–
FL-M08 (antibody, V domains shown, Chimeric full-length antibody, tested as human IgG4 / human kappa) VH: QIQLLQSGAELVRPGVSVKISCKGSGYTFTDYAMHWVKQSHAKSLEWIGVISTYQGDANYNQKFKGKATMTVDKSSSTAYMELARLTSEDSAIYYCARFPDWDYAMDYWGQGTSVTVSS VL: EIVLTQSPASLAVSLGQRATISCKASQSVDYDGDSYMNWYQQKPGQPPKLLIYAASNLESGIPARFSGSGSGTDFTLNIHPVEEEDAATYYCQHSRELPYTFGGGTKLEIK	0.704	0.157	0.016	0.035	–	–	–	–	–
FL-M89 (antibody, V domains shown, Chimeric full-length antibody, tested as human IgG4 / human kappa) VH: EVQLQQSGAELVRPGVSVKISCKGSGYTFTDYTIHWVKQSHAKSLEWIGVISTYQGDASYNQKFKGKATMTVDKSSSTAYMELARLTSEDSAIYYCARFPDWDYAMDYWGQGTSVTVSS VL: DIVMTQSPASLAVSLGQRATISCKASQSVDYDGDSYMNWYQQKPGQPPKLLIYAASNLESGIPARFSGSGSGTDFTLNIHPVEEEDAATYYCQQSRELPYTFGGGTKLEIK	1.33	0.441	0.021	0.023	–	–	–	–	–
FL-M54 (antibody, V domains shown, Chimeric full-length antibody, tested as human IgG4 / human kappa) VH: EVQLQQSGVELVKPGASVKLSCKASGYTFTRFDISWVRQRPEQGLEWIGWIFPGDGSSQYNENFKGKATLTTDKSSGTAYMQLNRLTSEDSAVYFCARSLISTAMFDHWGQGTTLTVSS VL: DIVMTQSPASLAVSLGQRATISCRASKSVSTSDFSYIHWYQQKPGQPPKLLIFLASHLESGVPARFSGSGSGTDFTLNIHPVEEEDAATYYCQHSRELPRTFGGGTKLEIK	1.97	0.725	0.018	0.018	0.023	0.023	–	–	–
FL-M56 (antibody, V domains shown, Chimeric full-length antibody, tested as human IgG4 / human kappa) VH: EVQLQQSGPELVKPGASVKLSCKASGYTFTRFDISWVRQRPEQGLEWIGWIFPGDGSTQYNENFKGKATLTTDKSSGTAYMQLNRLTSEDSAVYFCARSLISTAMFDHWGQGTTLTVSS VL: DIVLTQSPASLAVSLGQRATISCRASKSVSTSDFSYIHWYQQKPGLPPKLLIFLASHLESGVPARFSGSGSGTDFTLNIHPVEEEDAATYYCQHSRELPRTFGGGTKLEIK	2.73	0.661	0.02	0.02	–	–	–	–	–
FL-M78 (antibody, V domains shown, Chimeric full-length antibody, tested as human IgG4 / human kappa) VH: DVQLQESGGGLVQPGGSRKLSCAASGFTFSSYDMSWVRQTPEKRLEWVAFISSGGGSTYYPDTVKGRFTISRDNAKNTLYLQMSSLKSEDSAMYYCGRHYDNYLYAMDYWGQGTSVTVSS VL: DIVMTQSPASQSASLGESVTITCLASQTIGTWLAWYQQKPGKSPQLLIYAATSLADGVPSRFSGSGSGTKFSFKISSLQAEDFVSYYCQQLYSTPFTFGGGTKLEIK	3.01	0.811	0.016	0.023	–	–	–	–	–
humFL-M88-5 (antibody, human IgG4, V domains shown, Humanized FL-M88) VH: QVQLVQSGAEVKKPGASVKVSCKGSGYTFTDYTIHWVRQAPGQGLEWMGVISTYQGDASYNQKFKGRVTMTVDKSTSTVYMELSSLRSEDTAVYYCARFPDWDYAMDYWGQGTLVTVSS VL: EIVMTQSPATLSVSPGERATLSCKASQSVDYDGDSYMNWYQQKPGQPPRLLIYAASNLESGIPARFSGSGSGTEFTLTISSLQSEDFAVYYCQHSRELPYTFGQGTKLEIK	–	–	–	–	–	–	0.0222	0.0186	0.23
humFL-M88-6 (antibody, human IgG4, V domains shown, Humanized FL-M88) VH: QVQLVQSGAEVKKPGASVKVSCKASGYTFTDYTIHWVRQAPGQGLEWMGVISTYQGDASYNQKFKGRVTMTVDTSTSTVYMELSSLRSEDTAVYYCARFPDWDYAMDYWGQGTLVTVSS VL: EIVMTQSPATLSVSPGERATLSCKASQSVDYDGDSYMNWYQQKPGQPPRLLIYAASNLESGIPARFSGSGSGTEFTLTISSLQSEDFAVYYCQHSRELPYTFGQGTKLEIK	–	–	–	–	–	–	0.0204	–	0.235
humFL-M88-7 (antibody, human IgG4, V domains shown, Humanized FL-M88) VH: QVQLVQSGAEVKKPGASVKVSCKGSGYTFTDYTIHWVRQAPGQGLEWIGVISTYQGDASYNQKFKGRATMTVDKSTSTAYMELSSLRSEDTAVYYCARFPDWDYAMDYWGQGTLVTVSS VL: EIVMTQSPATLSVSPGERATLSCKASQSVDYDGDSYMNWYQQKPGQAPRLLIYAASNLESGIPARFSGSGSGTEFTLTISSLQSEDFAVYYCQHSRELPYTFGQGTKLEIK	–	–	–	–	–	–	0.0274	–	0.34
humFL-M88-9 (antibody, human IgG4, V domains shown, Humanized FL-M88) VH: QVQLVQSGAEVKKPGASVKVSCKGSGYTFTDYTIHWVRQAPGQGLEWMGVISTYQGDASYNQKFKGRATMTVDKSTSTAYMELSSLRSEDTAVYYCARFPDWDYAMDYWGQGTLVTVSS VL: EIVMTQSPATLSVSPGERATLSCKASQSVDYDGDSYMNWYQQKPGQAPRLLIYAASNLESGIPARFSGSGSGTEFTLTISSLQSEDFAVYYCQHSRELPYTFGQGTKLEIK	–	–	–	–	–	–	0.0225	0.022	0.284
humFL-M88-12 (antibody, human IgG4, V domains shown, Humanized FL-M88) VH: QVQLVQSGAEVKKPGASVKVSCKASGYTFTDYTIHWVRQAPGQGLEWMGVISTYQGDASYNQKFKGRVTMTVDTSTSTVYMELSSLRSEDTAVYYCARFPDWDYAMDYWGQGTLVTVSS VL: EIVMTQSPATLSVSPGERATLSCKASQSVDYDGDSYMNWYQQKPGQAPRLLIYAASNLESGIPARFSGSGSGTEFTLTISSLQSEDFAVYYCQHSRELPYTFGQGTKLEIK	–	–	–	–	–	–	–	0.0234	0.276
humFL-M88-18 (antibody, human IgG4, V domains shown, Humanized FL-M88) VH: QVQLVQSGAEVKKPGASVKVSCKASGYTFTDYTIHWVRQAPGQGLEWMGVISTYQGDASYNQKFKGRVTMTVDTSTSTVYMELSSLRSEDTAVYYCARFPDWDYAMDYWGQGTLVTVSS VL: EIVMTQSPATLSVSPGERATLSCKASQSVDYDGDSYMNWYQQKPGQPPRLLIYAASNLESGIPARFSGSGSGTEFTLTISSLQSEDFAVYYCQQSRELPYTFGQGTKLEIK	–	–	–	–	–	–	–	0.0325	0.272
